Assay [1] has as its target T1, mature CIS43 antibody (IgG).
T1 construct: also called CIS43 WT
Put plainly: competition ELISA (MSD): peptide pre-incubated with CIS43, read-out CIS43 bound to plate-bound rPfCSP.
Protocol: Peptides were all 15 amino acids in length, overlapping by 11 residues, and numbered according to their position on the protein. Briefly, streptavidin-coated plates (Meso Scale Discovery, MSD) were blocked with 5% BSA in PBS for 30 min at room temperature (RT), washed five times (wash buffer, 0.05% Tween-20 in PBS), then coated with biotinylated-recombinant PfCSP (0.2 μg/mL, Genscript) in PBS with 1% BSA, and allowed to incubate for 1 h at RT. […] Plates were incubated for 1 h at RT, washed five times, then incubated for an additional 1 h at RT with 1 μg/mL of appropriate secondary (either anti-human or anti-mouse) IgG SULFO-TAG (Meso Scale Discovery) in PBS with 1% BSA/0.05% Tween-20. After washing, plates were read using 1×MSD Read T Buffer (Meso Scale Discovery) on an MSD SECTOR © Imager 6000 instrument.

For assay [2], the target named is T2, peptide NANP5, penta-NANP repeat (not fully specified; biotinylated).
T2 construct: Printed only as the formula (NANP)5 / NANP5
T2 peptide: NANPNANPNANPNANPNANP
The assay is described as follows: BLI (Octet), Fab on biotinylated NANP5 peptide.
Protocol: (§1) Affinity measurements by BLI. Antibody Fab binding affinity to various ligands were measured using biolayer interferometry on an Octet Red384 instrument (fortdBio) with streptavidin capture biosensors (fortdBio) in solid black tilt-well 96-well plates (Geiger Bio-One). Assays were performed with agitation at 25° C. […] In all Octet measurements, parallel correction to subtract systematic baseline drift was carried out by subtracting the measurements recorded for a loaded sensor incubated in PBS. Data analysis was carried out using Octet software, version 9.0. Experimental data were fitted globally with a 1:1 Langmuir model of binding.

In assay [3] the target is T3, recombinant Plasmodium falciparum circumsporozoite protein (rPfCSP), biotinylated (Plasmodium falciparum, UniProt P19597 21-375). Put plainly: BLI (Octet), Fab on biotinylated rPfCSP; 2-component fit, primary KD.
Protocol: as §1
Assay [4] deals with T3, recombinant Plasmodium falciparum …. Put plainly: BLI (Octet), Fab on biotinylated rPfCSP; 2-component fit, second KD (KD2).
Protocol: as §1
A further assay has as its target T4, NPDP19-KLH conjugate (Plasmodium falciparum, also: conjugated to KLH carrier via maleimide linker, site not given here).
T4 construct: not shown: KLH carrier protein (about 390 kDa)
T4 peptide: KQPADGNPDPNANPNVDPN
The assay is described as follows: ELISA on NPDP19-KLH.

No end group written: not given here.

T1 sequence (heavy, as listed by the source, chain 1 of 2): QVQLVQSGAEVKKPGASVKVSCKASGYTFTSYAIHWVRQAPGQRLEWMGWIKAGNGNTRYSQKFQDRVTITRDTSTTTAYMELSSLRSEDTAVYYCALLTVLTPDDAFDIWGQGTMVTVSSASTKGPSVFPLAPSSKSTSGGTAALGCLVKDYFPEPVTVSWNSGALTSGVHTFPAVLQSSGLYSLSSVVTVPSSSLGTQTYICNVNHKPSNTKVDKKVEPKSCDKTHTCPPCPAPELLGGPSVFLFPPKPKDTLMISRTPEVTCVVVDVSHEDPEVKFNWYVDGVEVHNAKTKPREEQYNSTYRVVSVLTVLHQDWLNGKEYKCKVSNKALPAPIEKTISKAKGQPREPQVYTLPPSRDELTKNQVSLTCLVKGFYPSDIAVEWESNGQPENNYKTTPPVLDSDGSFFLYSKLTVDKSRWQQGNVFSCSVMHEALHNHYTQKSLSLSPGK
T1 sequence (light, as listed by the source, chain 2 of 2): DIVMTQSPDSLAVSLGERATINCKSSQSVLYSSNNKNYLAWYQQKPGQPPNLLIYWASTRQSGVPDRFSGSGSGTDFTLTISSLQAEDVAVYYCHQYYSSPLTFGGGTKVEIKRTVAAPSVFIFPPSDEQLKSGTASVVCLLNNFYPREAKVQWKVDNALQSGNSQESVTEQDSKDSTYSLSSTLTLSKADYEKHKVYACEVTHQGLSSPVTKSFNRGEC
T3 sequence (P19597 21-375 limits assumed): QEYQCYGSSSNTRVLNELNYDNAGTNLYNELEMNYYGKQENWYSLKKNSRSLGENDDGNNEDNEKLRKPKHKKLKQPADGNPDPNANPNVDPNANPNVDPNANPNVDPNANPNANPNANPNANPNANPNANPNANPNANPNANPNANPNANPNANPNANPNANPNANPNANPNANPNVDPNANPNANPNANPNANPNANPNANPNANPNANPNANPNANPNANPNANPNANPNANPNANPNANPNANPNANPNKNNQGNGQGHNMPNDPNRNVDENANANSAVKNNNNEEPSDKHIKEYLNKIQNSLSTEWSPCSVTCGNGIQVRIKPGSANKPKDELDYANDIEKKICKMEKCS

B1: 44: NANPNVDPNANPNAN (peptide)
peptide: NANPNVDPNANPNAN
notes: also called PfCSP peptide 44
With B1, the binding result in assay [1] is listed as “binds”.

B2: 43: NANPNANPNVDPNAN (peptide)
peptide: NANPNANPNVDPNAN
notes: also called PfCSP peptide 43
Consider B2, for which, in assay [1], the binding result is “binds”.

B3: iGL-CIS43-HL.K28.m43.151 Fab (Fab, V domains shown)
VH: QVHLVQSGAEVKKPGASVKVSCKASGYTFTSYAIHWVRQAPGQRLEWMGWIKGGNGNTRYSQKFQDRVTITRDTSASTAYMELSSLRSEDTAVYYCALLTVITPDDAFDIWGQGTMVTVSS
VL: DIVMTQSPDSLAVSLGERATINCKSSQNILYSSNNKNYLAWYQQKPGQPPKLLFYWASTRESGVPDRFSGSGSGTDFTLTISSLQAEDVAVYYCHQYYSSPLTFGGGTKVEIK
notes: also called m43_HH28K.17
Turning to B3, the Kd came to 715 nM in assay [2], 38.3 nM in assay [3] and 1700 nM in assay [4].

B4: iGL-CIS43-HL.K28.m42.127 Fab (Fab, V domains shown)
VH: QVQLVQSGAEVKKPGASVKVSCKASGYTFTSYAIHWVRQAPGQRLEWMGWIKAGNGNTRYSQKFQDRVTITRDTSASTAYMELSSLRSEDTAVYYCALLTVITPDDTFDIWGQGTMVTVSS
VL: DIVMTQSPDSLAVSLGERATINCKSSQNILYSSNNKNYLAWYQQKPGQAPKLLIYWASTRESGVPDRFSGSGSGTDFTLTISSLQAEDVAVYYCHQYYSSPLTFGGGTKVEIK
notes: also called m42_HH28K.13
For the molecule B4, the Kd in assay [2] was 952 nM; in assay [3], 31.6 nM; in assay [4] it was 1980 nM.

B5: inferred germline CIS43 (iGL-CIS43) Fab (Fab, V domains shown)
VH: QVQLVQSGAEVKKPGASVKVSCKASGYTFTSYAMHWVRQAPGQRLEWMGWINAGNGNTKYSQKFQGRVTITRDTSASTAYMELSSLRSEDTAVYYCALLTVVTPDDAFDIWGQGTMVTVSS
VL: not shown
notes: also called CIS43 gHgL; iGL-CIS43_UCA
Take B5: the results for the Kd in assay [2], in assay [3] and in assay [4] were 9650 nM, 679 nM and 5050 nM, respectively.

B6: m43.160 Fab (Fab, V domains shown)
VH: QVQLVQSGAEVKKPGASVKVSCKASGYTFTSYAIHWVRQAPGQRLEWMGWIKAGNGNTRYSQKFQGRVTITRDTSASTAYMELSSLRSEDTAGYYCALLTVITPDDAFDIWGQGTMVTVSS
VL: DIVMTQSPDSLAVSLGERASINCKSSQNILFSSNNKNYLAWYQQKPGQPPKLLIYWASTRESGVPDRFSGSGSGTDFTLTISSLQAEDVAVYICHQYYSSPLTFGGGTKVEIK
notes: also called m43_HH28K.26
As to B6, the Kd in assay [2] was determined as 957 nM; in assay [3], 36.8 nM; in assay [4] it was 1820 nM.

B7: inferred germline CIS43 (iGL-CIS43) mAb (IgG) (antibody, V domains shown)
VH: QVQLVQSGAEVKKPGASVKVSCKASGYTFTSYAMHWVRQAPGQRLEWMGWINAGNGNTKYSQKFQGRVTITRDTSASTAYMELSSLRSEDTAVYYCALLTVVTPDDAFDIWGQGTMVTVSS
VL: not shown
notes: as for B5
For the molecule B7, the binding result with NPDP19-KLH conjugate is “binds”.

B8: mature CIS43 Fab (Fab, V domains shown)
VH: QVQLVQSGAEVKKPGASVKVSCKASGYTFTSYAIHWVRQAPGQRLEWMGWIKAGNGNTRYSQKFQDRVTITRDTSTTTAYMELSSLRSEDTAVYYCALLTVLTPDDAFDIWGQGTMVTVSS
VL: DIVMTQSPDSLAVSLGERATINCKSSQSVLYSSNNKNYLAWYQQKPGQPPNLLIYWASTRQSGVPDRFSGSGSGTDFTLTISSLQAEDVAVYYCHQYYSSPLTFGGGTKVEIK
notes: also called CIS43 mature; CIS43 WT
Regarding B8, the values for the dissociation constant (Kd) in assay [2], in assay [3] and in assay [4] were 411 nM, 45.2 nM and 1330 nM, respectively.

B9: 27: NVDPNANPNANPNAN (peptide)
peptide: NVDPNANPNANPNAN
notes: also called PfCSP peptide 27
Regarding B9, in assay [1], the binding result is “binds”.
